Like-named read-outs stand apart in the source and are kept apart here.
Key:
Test in all cases: NMR HSQC titration
[1] = molecular target: T1, TDP-43 CTD WT (Homo sapiens, UniProt Q13148 267-414)
[2] = molecular target: T1, TDP-43 CTD WT; remark: listed apart in the source
[3] = molecular target: T1, TDP-43 CTD WT; remark: listed apart in the source
[4] = molecular target: T1, TDP-43 CTD WT; remark: listed apart in the source
[5] = molecular target: T1, TDP-43 CTD WT; remark: listed apart in the source
[6] = molecular target: T1, TDP-43 CTD WT; remark: listed apart in the source
[7] = molecular target: T1, TDP-43 CTD WT; remark: listed apart in the source

T1 sequence (Q13148 267-414): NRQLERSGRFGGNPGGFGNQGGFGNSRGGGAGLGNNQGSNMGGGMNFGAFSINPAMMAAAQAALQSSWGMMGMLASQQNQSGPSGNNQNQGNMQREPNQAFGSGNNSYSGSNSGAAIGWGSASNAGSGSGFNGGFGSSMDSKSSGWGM

B1: dU12 (ssDNA)
DNA: UUUUUUUUUUUU
modifications: deoxyuridine (DNA backbone) throughout
[1]
  binding result: binds

B2: dA12 (ssDNA)
DNA: AAAAAAAAAAAA
[2]
  binding result: binds

B3: dG12 (structured_DNA)
DNA: GGGGGGGGGGGG
[3]
  binding result: binds

B4: dC12 (structured_DNA)
DNA: CCCCCCCCCCCC
[3]
  binding result: binds

B5: dT12 (ssDNA)
DNA: TTTTTTTTTTTT
[4]
  binding result: binds

B6: (TG)17 (ssDNA)
DNA: TGTGTGTGTGTGTGTGTGTGTGTGTGTGTGTGTG
[5]
  binding result: binds

B7: c-Myc G4 (structured_DNA)
DNA: GCTTATGGGGAGGGTGGGGAGGGTGGGGAAGGTG
[6]
  binding result: binds

B8: c-Myc I-motif (structured_DNA)
DNA: CACCTTCCCCACCCTCCCCACCCTCCCCATAAGC
[7]
  binding result: binds
